The target of the assay is T1, human TLR5 expressed from p3xFlag-hTLR5 in HEK293T cells (human, UniProt O60602 21-858).
T1 construct: whole, on cells; In the reporter assays the receptor stood on transfected HEK293T cells; In the Co-IP it stood in the RIPA lysate of such cells and was pulled down with an anti-Flag antibody; also called Toll-like receptor 5; not shown: 3xFlag tag of plasmid p3xFlag-hTLR5
Nature of the assay: Co-IP: 3xFlag-hTLR5 HEK293T lysate, anti-Flag pull-down, western blot with anti-Myc-HRP. A general note: Immunoblotting shows a protein as a band on a membrane.

Experimental findings from patent US20260132173A1 (JOON HAENG, published 2026) are described below.

T1 sequence (O60602 21-858): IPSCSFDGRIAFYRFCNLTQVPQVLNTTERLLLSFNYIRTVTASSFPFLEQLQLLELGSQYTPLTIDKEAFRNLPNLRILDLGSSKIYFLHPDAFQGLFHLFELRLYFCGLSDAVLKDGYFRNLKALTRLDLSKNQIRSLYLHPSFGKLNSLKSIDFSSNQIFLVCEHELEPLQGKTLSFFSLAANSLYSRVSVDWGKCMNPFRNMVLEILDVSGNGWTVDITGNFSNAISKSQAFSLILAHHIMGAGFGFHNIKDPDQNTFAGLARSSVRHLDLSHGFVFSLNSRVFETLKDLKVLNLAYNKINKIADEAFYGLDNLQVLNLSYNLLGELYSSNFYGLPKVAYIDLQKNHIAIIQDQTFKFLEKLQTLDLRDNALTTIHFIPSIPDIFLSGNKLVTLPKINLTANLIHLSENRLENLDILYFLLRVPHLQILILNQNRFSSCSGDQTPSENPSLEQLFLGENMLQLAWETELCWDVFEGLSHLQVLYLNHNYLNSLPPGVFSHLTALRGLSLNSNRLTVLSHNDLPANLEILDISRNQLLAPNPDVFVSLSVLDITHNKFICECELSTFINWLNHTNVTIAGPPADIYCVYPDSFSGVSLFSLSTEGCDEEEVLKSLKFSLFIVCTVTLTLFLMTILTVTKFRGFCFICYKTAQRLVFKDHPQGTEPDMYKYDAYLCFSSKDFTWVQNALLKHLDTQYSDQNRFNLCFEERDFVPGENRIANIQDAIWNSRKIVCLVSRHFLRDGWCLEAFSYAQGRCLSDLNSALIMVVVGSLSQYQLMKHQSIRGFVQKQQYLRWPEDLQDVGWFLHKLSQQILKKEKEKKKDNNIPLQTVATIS

B1: wild-type flagellin (eukFlaB) expressed in Expi293 cells (ligand)
chain: AVNVNTNVAAMTAQRYLNNANSAQQTSMERLSSGFKINSAKDDAAGLQISNRLNVQSRGLDVAVRNANDGISIAQTAEGAMNETTNILQRMRDLSLQSANGSNSKSERVAIQEEVTALNDELNRIAETTSFGGNKLLNGTYGTKAMQIGADNGEAVMLSLKDMRSDNVMMGGVSYQAEEGKDKNWNVAAGDNDLTIALTDSFGNEQEIEINAKAGDDIEELATYINGQTDLVKASVGEGGKLQIFAGNNKVQGEIAFSGSLAGELGLGEGKNVTVDTIDVTTVQGAQESVAIVDAALKYVDSHRAELGAFQNRFNHAISNLDNINENVNASKSRIKDTDFAKETTQLTKTQILSQASSSILAQAKQAPNSALSLLG
modifications: N-glycosylated by expression in Expi293 cells; five putative sites predicted at N83, N101, N139, N273, N330
notes: Secreted through the IgK leader of pSectag2B; also called glycosylated-eFlaB; eukaryotic-expressed wild-type flagellin; not shown: C-terminal Myc tag (and His tag implied by Ni-NTA purification) from vector pSectag2B
For the molecule B1, the binding result was “no binding”.
